How the values were obtained:
[1] = target: eukaryotic Initiation Factor 4E (eIF4E), wild type (mouse (endogenous in forebrain)) (UniProt P63073); test: pull-down; cap-column pulldown: 500 ug forebrain lysate protein with 50 ul m7GDP agarose in buffer C (50 mM MOPS-KOH pH 7.4, 100 mM NaCl, 50 mM NaF, 0.5 mM EDTA, 0.5 mM EGTA, 0.1 mM GTP), 90 min at 4 C; eIF4E held by its ligand m7GDP; cap-bound fraction immunoblotted and quantified, normalised to input
Gapdh = Gapdh (UniProt P16858); test: m7GDP-agarose cap pull-down, immunoblot; conditions: reference: wild-type mouse forebrain; sites S209
rpL13a = rpL13a (UniProt P19253); test: m7GDP-agarose cap pull-down, immunoblot; conditions: reference: wild-type mouse forebrain; sites S209
eIF4G = eIF4G (UniProt Q6NZJ6); test: m7GDP-agarose cap pull-down, immunoblot; conditions: reference: wild-type mouse forebrain; sites S209

Chain of Gapdh, P16858 1-333 (natural protein; other documents disagree on this pair) (P16858 whole entry): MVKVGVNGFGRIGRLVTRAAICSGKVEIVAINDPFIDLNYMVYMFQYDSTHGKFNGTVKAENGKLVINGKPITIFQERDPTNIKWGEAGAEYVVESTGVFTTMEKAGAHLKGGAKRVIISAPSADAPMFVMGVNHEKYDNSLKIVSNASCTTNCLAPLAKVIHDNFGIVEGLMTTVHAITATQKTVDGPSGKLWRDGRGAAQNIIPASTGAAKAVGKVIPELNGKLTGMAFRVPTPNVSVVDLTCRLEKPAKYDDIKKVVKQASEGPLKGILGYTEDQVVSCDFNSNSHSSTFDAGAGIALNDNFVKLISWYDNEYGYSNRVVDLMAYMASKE

Substance | cap-bound protein (arbitrary units, normalised to input) (arbitrary units) [1] | other: cap-bound band intensity normalized to input (Gapdh) | other: cap-bound band intensity normalized to input (rpL13a) | other: cap-bound band intensity normalized to input (eIF4G)
Gapdh, P16858 1-333 (natural protein; other documents disagree on this pair) | 0.998 | – | – | –
eIF4E (from UniProt P63073) 4Eki (S209A knock-in) forebrain | – | same; reference 0.998 ± 0.254 | weaker; reference 0.9975 ± 0.1723 | same; reference 1.002 ± 0.149
